Laboratory results reported in patent US6617306B2, “Carrier for in vivo delivery of a therapeutic agent” (priority 1998, dated 2003).
Side chains are listed from the residue outwards. * marks the point of attachment. Biotin = O=C1N[C@H]2[C@H](CS[C@H]2CCCCC(=O)*)N1; cysteamine‑PEG/Lys copolymer = not defined here; PEG/Lys copolymer = not defined here

Tests used:
[1] = Release of peptide from PEG/Lys carrier by reductive cleavage of the disulfide linkage with glutathione; assay type: physicochemical; settings: for half-time of release of peptide from carrier: 3 mM glutathione in PBS (pH 7.4), room temperature, cysteamine thiol linker
Description: The disulfide linked conjugate, PEG-cysteamine-N-acetyl-Phe-Arg-Arg-Arg-Cys-NH2 (SEQ ID NO:9) was added to a solution of reduced glutathione (3 mM in PBS) to a final peptide concentration of 0.3 mM, and then incubated under N2 at room temperature. A sample was taken at each time point, acidified by adding an aliquot of 5% TFA and applied to a G-75 column in 0.1% TFA (7 ml bed volume) to separate PEG-conjugated peptide from free peptide. Appropriate fractions in the high-molecular-weight region were pooled, and the extent of peptide derivatization at each time point was determined by amino acid analysis. For measuring the release of radiolabeled peptide, each time point aliquot was acidified to pH 3.5 with sulfuric acid. The PEG-conjugated peptide and the free peptide were then separated using ultrafiltration on “CENTRICON-10”. To ensure complete separation, the retentate was diluted and ultrafiltered two more times. Radioactivity in the retentate and combined filtrate was quantitated by scintillation counting.
Release of the peptide, N-acetyl-Phe-Arg-Arg-Arg-Cys-NH2 (SEQ ID NO:9), by reductive cleavage of its disulfide linkage to a carrier of the present invention comprising a PEG/Lys copolymer was evaluated using 3 mM glutathione in PBS (pH 7.4) at room temperature. At each time point, an aliquot was withdrawn and acidified to halt the disulfide interchange reaction. Released peptide was removed from PEG/Lys-peptide conjugate by gel filtration chromatography, and the ratio of PEG (i.e. Lys residues) to peptide (i.e. Phe or Arg residues) was determined by amino acid analysis.
Release kinetics were also studied using the disulfide-linked radiolabeled peptides, N-acetyl-Arg-Lys-Lys-Arg-Arg-Gln-Arg-Arg-Arg-Cys-NH2 (SEQ ID NO:10) and N-acetyl-Arg-Lys-Lys-Arg-Arg-Gln-Arg-Arg-Arg-Lys-(biotin)-Cys-NH2 (SEQ ID NO:3). Released peptide was removed from PEG/Lys-peptide conjugate by ultrafiltration.
Analysis of the release rate of the radiolabeled peptide, N-acetyl-Arg-Lys-Lys-Arg-Arg-Gln-Arg-Arg-Arg-Lys-(biotin)-Cys-NH2 (SEQ ID NO:3) gave a half-time of about 40 min in the presence of 30 mM glutathione (FIG. 6). Since the disulfide cleavage rate is proportional to glutathione concentration^8, the sterically hindered linker has a release rate about 100 times slower than does a carrier of the present invention in which the thiol compound is cysteamine. Thus, the release rate can be readily controlled by selection of a thiol compound having functional groups, wherein the thiol compound is conjugated to the polymer, and conjugated via a disulfide bond to a therapeutic agent.

Tat binding to TAR RNA = test: TAR-CAT / Tat plasmid transfected Jurkat cells, CAT protein by immunoassay; assay type: cell-based, HIV-1; settings: inhibitor added at 18 h, CAT measured at 42 h
Description: FIG. 7 is a graph of the comparison of the inhibition of protein expression in a Jurkat cell line transfected with a TAR-CAT (TAR-Chloramphenicol Acetyl Transferase) plasmid and a Tat-protein plasmid. In this experiment, one group of cells was administered a Tat inhibitory biotinylated polypeptide derivative having a sequence of N-acetyl-Arg-Lys-Lys-Arg-Arg-Gln-Arg-Arg-Arg-Lys-(biotin)-Cys-NH2 (SEQ ID NO:3), and another group of cells was administered the same Tat inhibitory biotinylated peptide derivative conjugated to a carrier of the present invention via a disulfide bond between the sulfur atom of the thiol group of the thiol compound, and the thiol group of the Cys residue located between biotin and the amino group of the Tat inhibitory biotinylated polypeptide derivative of SEQ ID NO:3. […] Cysteamine was the thiol compound conjugated to the polymer. Conjugation of cysteamine to the polymer involved the carboxylic acid group of the lysine incorporated into the copolymer, which was available for reaction. If the polypeptide was successful in inhibiting Tat binding to TAR, CAT […]. […]
Initially, a Jurkat cell line was stably transfected with a TAR-CAT plasmid. […] At t=42 hours, the cells were harvested and CAT protein was measured by immunoassay. […]

Substance | half-time of release of peptide from carrier [1] | half-time of release of radiolabeled peptide from carrier ([1]; 30 mM glutathione in PBS, sterically hindered linker 1-amino-2-methyl-2-propanethiol) | release rate, times slower than carrier with cysteamine ([1]; cleavage rate taken as proportional to glutathione concentration) | increase in potency relative to biotinylated Tat-peptide inhibitor administered alone (Tat binding to TAR RNA)
PEG-cysteamine-SEQ ID NO:10: radiolabeled SEQ ID NO:10 peptide disulfide-linked to PEG/Lys copolymer through cysteamine (Ac-RKKRRQRRRC-NH2; not fully specified (residue 10); printed as N-acetyl-Arg-Lys-Lys-Arg-Arg-Gln-Arg-Arg-Arg-Cys-NH2; also: radiolabel) | about 3 minutes |  |  | 
PEG-1-amino-2-methyl-2-propanethiol-SEQ ID NO:3: radiolabeled SEQ ID NO:3 peptide disulfide-linked to PEG/Lys derivative of sterically hindered 1-amino-2-methyl-2-propanethiol (Ac-RKKRRQRRRK(Biotin)C-NH2; not fully specified (residue 11); printed as N-acetyl-Arg-Lys-Lys-Arg-Arg-Gln-Arg-Arg-Arg-Lys-(biotin)-Cys-NH2; also: acetyl group tritium-labelled, Cys11 disulfide-linked to PEG/Lys carrier bearing 1-amino-2-methyl-2-propanethiol) |  | about 40 min | about 100 times | 
PEG-cysteamine-SEQ ID NO:3: SEQ ID NO:3 peptide disulfide-linked via its Cys to the cysteamine-PEG carrier (PEG/lysine copolymer, about 27,000 D) (Ac-RKKRRQRRRKC([cysteamine (disulfide)-PEG/Lys copolymer])-NH2; reading uncertain; also: Lys(biotin), position not given here) | about 3 minutes |  |  | about 5 fold
PEG-cysteamine-N-acetyl-Phe-Arg-Arg-Arg-Cys-NH2 (Ac-FRRRC(cysteamine‑PEG/Lys copolymer)-NH2; reading uncertain; also: Cys disulfide-linked to PEG/Lys cysteamine carrier, printed as PEG-cysteamine-N-acetyl-Phe-Arg-Arg-Arg-Cys-NH2) [PEG-cysteamine-SEQ ID NO:9] | about 3 minutes |  |  | 
